This note sets out measurements from article PMC4324353.

The test addresses latrunculin B bound actin (A. castellani actin monomer) (A. castellani). In words: fluorescence polarisation. (Polarisation of emitted light reports the rotation of a fluorescent probe.)

By Kd is commonly meant the constant that tells how readily two partners part at equilibrium. Lower therefore signals a tighter complex. “Spir second WH2 domain (SB) (domain or fragment)”: the Kd was 90 nM.
